Here are results for two molecules from patent publication US20260125457A1 (Janssen / Centocor, published 2026).

Assay [1] addresses T1, wild-type calreticulin (CALRwt) expressed with MPL in engineered cancer cells (UniProt P27797 18-417, limits assumed).
T1 construct: whole, on cells; also called OCI-M2 MPL CALRwt
T1 sequence (looked up): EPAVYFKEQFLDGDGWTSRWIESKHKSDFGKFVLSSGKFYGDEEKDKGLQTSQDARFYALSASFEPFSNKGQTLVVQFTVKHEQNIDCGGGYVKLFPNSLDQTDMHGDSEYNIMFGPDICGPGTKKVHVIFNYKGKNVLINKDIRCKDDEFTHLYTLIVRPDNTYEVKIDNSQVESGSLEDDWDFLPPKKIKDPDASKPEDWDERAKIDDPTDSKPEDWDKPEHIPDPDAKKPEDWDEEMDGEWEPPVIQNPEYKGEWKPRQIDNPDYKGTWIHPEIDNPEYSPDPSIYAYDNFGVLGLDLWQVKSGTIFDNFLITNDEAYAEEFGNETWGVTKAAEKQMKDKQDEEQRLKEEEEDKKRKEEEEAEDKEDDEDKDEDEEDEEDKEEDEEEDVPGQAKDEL
The experiment in a line: flow cytometry, ELF-153 and OCI-M2 MPL CALRwt cells. A general note: Flow cytometry measures light scatter and fluorescence of single cells or particles in a stream.

The target of assay [2] is T2, CD3 on primary human pan T cells (human, UniProt P07766 23-207).
T2 construct: whole, on cells; also called CD3e; CD3ε
T2 sequence (P07766 23-207): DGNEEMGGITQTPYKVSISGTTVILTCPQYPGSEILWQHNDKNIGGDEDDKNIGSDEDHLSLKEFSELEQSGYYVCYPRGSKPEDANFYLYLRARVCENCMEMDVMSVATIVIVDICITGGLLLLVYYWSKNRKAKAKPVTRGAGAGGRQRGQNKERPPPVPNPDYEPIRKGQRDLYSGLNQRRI
Kind of assay: flow cytometry on pan CD3 T cells, 1 h at 37 C, AF647 secondary antibody, Geometric Mean. The procedure:
FIG. 22 depicts binding of different CALRmutxCD3 bispecific antibodies to pan CD3 T cells. Flow cytometry was used to evaluate CALRmutxCD3 binding to pan CD3 T cells in vitro, by 1 hour 37° C. incubation, with subsequent incubation with secondary AF647-labeled antibody. Geometric mean fluorescence intensity of AF647 was measured to determine antibody binding.
Flow cytometry was used to evaluate the CD3 arm binding of CALRmutxCD3 antibodies listed in Table 21 to CD3+ pan T cells from healthy human donor. CALRmutxCD3 were tested after 1 hour 37° C. incubation with pan T cells.

For assay [3], the target named is T3, CALRdel52 (mutant calreticulin, 52 base pair deletion, Type 1) expressed with MPL on engineered cancer cells (UniProt P27797 18-417).
T3 construct: whole, on cells; On the cell surface in complex with MPL; also called OCI-M2 MPL CALRdel52
T3 sequence (looked up): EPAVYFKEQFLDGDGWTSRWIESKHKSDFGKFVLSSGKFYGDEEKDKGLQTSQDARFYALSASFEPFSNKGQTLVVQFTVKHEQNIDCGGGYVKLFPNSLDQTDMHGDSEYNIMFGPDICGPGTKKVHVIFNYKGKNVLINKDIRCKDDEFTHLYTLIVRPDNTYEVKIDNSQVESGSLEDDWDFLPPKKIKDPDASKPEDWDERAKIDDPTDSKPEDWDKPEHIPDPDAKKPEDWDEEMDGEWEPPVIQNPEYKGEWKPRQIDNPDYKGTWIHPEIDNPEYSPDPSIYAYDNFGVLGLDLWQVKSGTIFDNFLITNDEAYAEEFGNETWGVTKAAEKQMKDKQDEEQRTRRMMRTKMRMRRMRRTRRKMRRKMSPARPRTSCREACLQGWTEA
The experiment in a line: flow cytometry on OCI-M2 MPL CALRdel52 cells, 1 h at 37 C, AF647 secondary antibody, Geometric Mean. Here is the method:
FIGS. 21A-21F depict binding of different CALRmutxCD3 bispecific antibodies to CALRmut-negative or CALRmut-positive cells. Flow cytometry was used to evaluate CALRmutxCD3 binding to CALRmut-negative and CALRmut-positive cancer cells in vitro. CALRmutxCD3 antibodies were tested on a panel of cell lines, engineered to express MPL and CALRmut, after 1 hour 37° C. incubation, with subsequent incubation with secondary AF647-labeled antibody. Geometric mean fluorescence intensity of AF647 was measured to determine antibody binding.

Assay [4] concerns the target T4, CALRins5 (mutant calreticulin, 5 base pair insertion, Type 2) expressed with MPL on engineered cancer cells (UniProt P27797 18-417).
T4 construct: whole, on cells; On the cell surface in complex with MPL; also called OCI-M2 MPL CALRins5
T4 sequence (looked up): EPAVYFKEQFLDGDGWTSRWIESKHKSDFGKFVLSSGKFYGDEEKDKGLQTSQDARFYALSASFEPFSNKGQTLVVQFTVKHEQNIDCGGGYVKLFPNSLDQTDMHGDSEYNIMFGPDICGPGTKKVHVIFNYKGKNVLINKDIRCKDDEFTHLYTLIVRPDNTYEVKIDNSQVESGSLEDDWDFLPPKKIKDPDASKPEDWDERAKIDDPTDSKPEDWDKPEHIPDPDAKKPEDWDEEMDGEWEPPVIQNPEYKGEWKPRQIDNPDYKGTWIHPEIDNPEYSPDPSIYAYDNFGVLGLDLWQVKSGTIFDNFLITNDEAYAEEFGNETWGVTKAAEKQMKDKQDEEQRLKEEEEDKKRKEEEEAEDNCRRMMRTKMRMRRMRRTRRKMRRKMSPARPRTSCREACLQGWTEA
The experiment in a line: flow cytometry, OCI-M2 and ELF-153 MPL CALRins5 cells.

Assay [5] has as its target T1, wild-type calreticulin (CALRwt) …. The experiment in a line: flow cytometry, OCI-M2 and ELF-153 MPL CALRwt cells.
Assay [6] deals with T3, CALRdel52 (mutant calreticulin, 52 base …). Kind of assay: flow cytometry, OCI-M2 and ELF-153 MPL CALRdel52 cells.

For orientation: EC50 (read off the curve) means the concentration giving half of the maximal effect. A high value points to a less potent agent.

B1: C3CRB127 CALRmut x CD3 bispecific antibody (bispecific antibody, human IgG1, kappa, L234A L235A)
heavy 1: QVQLVQSGAEVKKPGASVKVSCKASGFSLSSYAMSWVRQAPGQGLEWMGVIDSGGTTYYAQKFQGRVTMTRDTSTSTVYMELSSLRSEDTAVYYCARESYAGYDYYGHPIPYGMEPWGQGTLVTVSSASTKGPSVFPLAPSSKSTSGGTAALGCLVKDYFPEPVTVSWNSGALTSGVHTFPAVLQSSGLYSLSSVVTVPSSSLGTQTYICNVNHKPSNTKVDKKVEPKSCGGGGSGGGGSEVQLVESGGGLVKPGGSLRLSCAASGFTFSRYNMNWVRQAPGCGLEWVSSISTSSNYIYYADSVKGRFTFSRDNAKNSLDLQMSGLRAEDTAIYYCTRGWGPFDYWGQGTLVTVSSGGGSGGSGGCPPCGGSGGDIQMTQSPSSLSASVGDRVTITCRARQSIGTAIHWYQQKPGKAPKLLIKYASESISGVPSRFSGSGSGTDFTLTISSLQPEDFATYYCQQSGSWPYTFGCGTKLEIKEPKSSDKTHTCPPCPAPEAAGGPSVFLFPPKPKDTLMISRTPEVTCVVVSVSHEDPEVKFNWYVDGVEVHNAKTKPREEQYNSTYRVVSVLTVLHQDWLNGKEYKCKVSNKALPAPIEKTISKAKGQPREPQVYTLPPSREEMTKNQVSLWCLVKGFYPSDIAVEWESNGQPENNYKTTPPVLDSDGSFFLYSKLTVDKSRWQQGNVFSCSVMHEALHNHYTQKSLSLSPGK
heavy 2: QVQLVQSGAEVKKPGASVKVSCKASGFSLSSYAMSWVRQAPGQGLEWMGVIDSGGTTYYAQKFQGRVTMTRDTSTSTVYMELSSLRSEDTAVYYCARESYAGYDYYGHPIPYGMEPWGQGTLVTVSSASTKGPSVFPLAPSSKSTSGGTAALGCLVKDYFPEPVTVSWNSGALTSGVHTFPAVLQSSGLYSLSSVVTVPSSSLGTQTYICNVNHKPSNTKVDKKVEPKSCDKTHTCPPCPAPEAAGGPSVFLFPPKPKDTLMISRTPEVTCVVVSVSHEDPEVKFNWYVDGVEVHNAKTKPREEQYNSTYRVVSVLTVLHQDWLNGKEYKCKVSNKALPAPIEKTISKAKGQPREPQVYTLPPSREEMTKNQVSLSCAVKGFYPSDIAVEWESNGQPENNYKTTPPVLDSDGSFFLVSKLTVDKSRWQQGNVFSCSVMHEALHNRFTQKSLSLSPGK
light: DIQMTQSPSTLSASVGDRVTITCQASQSLYNNKNLAWYQQKPGKAPKLLIYYASALASGVPSRFSGSGSGTEFTLTISSLQPDDFATYYCQGEFNCNSADCNSFGGGTKVEIKRTVAAPSVFIFPPSDEQLKSGTASVVCLLNNFYPREAKVQWKVDNALQSGNSQESVTEQDSKDSTYSLSSTLTLSKADYEKHKVYACEVTHQGLSSPVTKSFNRGEC
notes: Chain A heavy: CALRB1114 Fab heavy part, CD3 spFv (HL), Fc; Chain B heavy: CALRB1114
Take B1: the binding result in assay [1] was “no binding”. The “EC50 (read off the curve)” value in assay [2] is about 5 nM; in assay [3], about 2 nM.

B2: C3CRB136 CALRmut x CD3 bispecific antibody (bispecific antibody, human IgG1, kappa, L234A L235A)
scFv: DIQMTQSPSSLSASVGDRVTITCRARQSIGTAIHWYQQKPGCAPKLLIKYASESISGVPSRFSGSGSGTDFTLTISSLQPEDFATYYCQQSGSWPYTFGQGTKLEIKGGGSGGSGGCPPCGGSGGEVQLVESGGGLVKPGGSLRLSCAASGFTFSRYNMNWVRQAPGKGLEWVSSISTSSNYIYYADSVKGRFTFSRDNAKNSLDLQMSGLRAEDTAIYYCTRGWGPFDYWGCGTLVTVSSEPKSSDKTHTCPPCPAPEAAGGPSVFLFPPKPKDTLMISRTPEVTCVVVSVSHEDPEVKFNWYVDGVEVHNAKTKPREEQYNSTYRVVSVLTVLHQDWLNGKEYKCKVSNKALPAPIEKTISKAKGQPREPQVYTLPPSREEMTKNQVSLWCLVKGFYPSDIAVEWESNGQPENNYKTTPPVLDSDGSFFLYSKLTVDKSRWQQGNVFSCSVMHEALHNHYTQKSLSLSPGK
heavy: QVQLVQSGAEVKKPGASVKVSCKASGFSLSSYAMSWVRQAPGQGLEWMGVIDSGGTTYYAQKFQGRVTMTRDTSTSTVYMELSSLRSEDTAVYYCARESYAGYDYYGHPIPYGMEPWGQGTLVTVSSASTKGPSVFPLAPSSKSTSGGTAALGCLVKDYFPEPVTVSWNSGALTSGVHTFPAVLQSSGLYSLSSVVTVPSSSLGTQTYICNVNHKPSNTKVDKKVEPKSCGGGGSGGGGSQVQLVQSGAEVKKPGASVKVSCKASGFSLSSYAMSWVRQAPGQGLEWMGVIDSGGTTYYAQKFQGRVTMTRDTSTSTVYMELSSLRSEDTAVYYCARESYAGYDYYGHPIPYGMEPWGQGTLVTVSSASTKGPSVFPLAPSSKSTSGGTAALGCLVKDYFPEPVTVSWNSGALTSGVHTFPAVLQSSGLYSLSSVVTVPSSSLGTQTYICNVNHKPSNTKVDKKVEPKSCDKTHTCPPCPAPEAAGGPSVFLFPPKPKDTLMISRTPEVTCVVVSVSHEDPEVKFNWYVDGVEVHNAKTKPREEQYNSTYRVVSVLTVLHQDWLNGKEYKCKVSNKALPAPIEKTISKAKGQPREPQVYTLPPSREEMTKNQVSLSCAVKGFYPSDIAVEWESNGQPENNYKTTPPVLDSDGSFFLVSKLTVDKSRWQQGNVFSCSVMHEALHNRFTQKSLSLSPGK
light: B1 light
notes: Chain B heavy: two CALRB1114 Fab heavy parts in tandem, Fc
For the molecule B2, the binding result in assay [4] was “binds”; in assay [5], “no binding”; in assay [6] it was “binds”.
